In patent US5639616, “Isolated nucleic acid encoding a ubiquitous nuclear receptor” (Arch Development Corporation):

B1: DR-0 (dsDNA)
DNA 1: GATCCTCAGGTCAAGGTCAGAAGCT
DNA 2: AGCTTCTGACCTTGACCTGAGGATC
B2: DR-1 (dsDNA)
DNA 1: GATCCTCAGGTCAGAGGTCAGAAGCT
DNA 2: AGCTTCTGACCTCTGACCTGAGGATC
B3: DR-2 (dsDNA)
DNA 1: GATCCTCAGGTCAAGAGGTCAGAAGCT
DNA 2: AGCTTCTGACCTCTTGACCTGAGGATC
B4: DR-3 (dsDNA)
DNA 1: GATCCTCAGGTCAAGGAGGTCAGAAGCT
DNA 2: AGCTTCTGACCTCCTTGACCTGAGGATC
B5: DR-4 (dsDNA)
DNA 1: GATCCTCAGGTCACAGGAGGTCAGAAGCT
DNA 2: AGCTTCTGACCTCCTGTGACCTGAGGATC
B6: DR-5 (dsDNA)
DNA 1: GATCCTCAGGTCACCAGGAGGTCAGAAGCT
DNA 2: AGCTTCTGACCTCCTGGTGACCTGAGGATC
B7: DR-6 (dsDNA)
DNA 1: GATCCTCAGGTCACCAAGGAGGTCAGAAGCT
DNA 2: AGCTTCTGACCTCCTTGGTGACCTGAGGATC

Assays:
[1] = biological target: human retinoid X receptor alpha (hRXRα) (human) (UniProt P19793)
[2] = biological target: T1, rUR DNA-binding domain (UR-DBD) (Rattus norvegicus, UniProt Q62755 SEQ:72-168); assay: EMSA; monomer binding; details: tags: His tag, pET15b fusion, E. coli; label: 32P; 4-nt 5' overhangs
T1 sequence: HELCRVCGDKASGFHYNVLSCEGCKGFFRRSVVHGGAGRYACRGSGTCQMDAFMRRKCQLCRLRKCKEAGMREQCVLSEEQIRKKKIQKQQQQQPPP
Method: (§1) The DNA-binding ability of this domain was tested by gel-shift analyses with a set of oligonucleotides that contained AGGTCA direct repeats with 0 to 6 oligonucleotide spacing (shown above).
(§2) A segment of UR containing the DBD and a few amino acids of the hinge region (rUR amino acid residues 72 to 168) was expressed as a fusion protein using the E. coli expression vector PET15b and purified by affinity (Ni^+2/His-tag) chromatography. The DNA-binding ability of this domain was tested by gel shift analysis with a set of oligonucleotides that contained AGGTCA direct repeats with 0 to 6 oligonucleotide spacing. The UR fusion protein bound to all these direct repeats as a monomer, and optimum spacing for homodimer binding was 4 and 5 nucleotides, which is identical to a retinoic acid receptor response element (RARE). A hinge region peptide antibody super-shifted UR DBD homodimers bound to DR-4 and DR-5. Supershifting of monomer was not observed.

[3] = biological target: T1, rUR DNA-binding domain (UR-DBD); assay: EMSA; monomer plus homodimer; homodimer best on DR-4 and DR-5, supershifted by hinge antibody; details: tags: His tag, pET15b fusion, E. coli; label: 32P; 4-nt 5' overhangs
Method: as §1, §2

[4] = biological target: T1, rUR DNA-binding domain (UR-DBD); assay: EMSA; monomer plus homodimer; optimum homodimer spacing, supershifted by hinge antibody; details: tags: His tag, pET15b fusion, E. coli; label: 32P; 4-nt 5' overhangs
Method: as §1, §2

| Molecule | binding result [2] | further results |
| --- | --- | --- |
| rat ubiquitous nuclear receptor (rUR), full-length | – | CAT activity of a DR-4 CAT reporter in COS-1 cells, absence of 9c-RA [1]: 4 to 5 fold |
| B1 | binds | – |
| B2 | binds | – |
| B3 | binds | – |
| B4 | binds | – |
| B5 | – | binding result [3]: binds |
| B6 | – | binding result [4]: binds |
| B7 | binds | – |
